The test has as its target 3D8 IgG-N434D mutant (mouse | human).

3D8 IgG-N434D mutant (mouse | human), sequence (heavy, as listed by the source, chain 1 of 2): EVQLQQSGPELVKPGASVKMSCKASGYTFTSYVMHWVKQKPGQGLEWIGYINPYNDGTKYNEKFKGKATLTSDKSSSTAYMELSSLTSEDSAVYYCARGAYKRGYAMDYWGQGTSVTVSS
3D8 IgG-N434D mutant (mouse | human), sequence (light, as listed by the source, chain 2 of 2): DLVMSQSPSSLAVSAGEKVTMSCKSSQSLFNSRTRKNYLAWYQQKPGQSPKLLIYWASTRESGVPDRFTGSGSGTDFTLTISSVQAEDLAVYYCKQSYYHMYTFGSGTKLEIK

As to “tripartite motif-containing 21 (TRIM21) (from UniProt P19474 1-475) (natural protein)”, the secretion of IL-8 and TNF-α by THP-1 cells treated with 5 μM IgG for 6 h (ELISA), against cells treated with wt 3D8 IgG worked out at 40 % higher.

Source of the values: article PMC6131520.
